Like-named read-outs stand apart in the source and are kept apart here. Where no end group is shown, it is not given here.
T1: BSA-conjugated mouse CADM1 peptide (mouse, also: conjugated to BSA via added C-terminal Cys)
T1 construct: also called mouse peptide
T1 peptide: DSRAGEEGTIGAVDHC(BSA)

T2: BSA-conjugated human CADM1 peptide (human, also: conjugated to BSA via added C-terminal Cys)
T2 construct: also called human peptide; rhCADM1 peptide
T2 peptide: DSRAGEEGSIRAVDHC(BSA)

T3: CADM1 peptide expressed on SBC-5 small cell lung cancer cells (CADM1-SBC-5); peptide - transmembrane domain - … (human)
T3 construct: also called CADM1 펩타이드를 발현하는 SBC-5 세포
T3 sequence (Q9BY67 whole entry, looked up): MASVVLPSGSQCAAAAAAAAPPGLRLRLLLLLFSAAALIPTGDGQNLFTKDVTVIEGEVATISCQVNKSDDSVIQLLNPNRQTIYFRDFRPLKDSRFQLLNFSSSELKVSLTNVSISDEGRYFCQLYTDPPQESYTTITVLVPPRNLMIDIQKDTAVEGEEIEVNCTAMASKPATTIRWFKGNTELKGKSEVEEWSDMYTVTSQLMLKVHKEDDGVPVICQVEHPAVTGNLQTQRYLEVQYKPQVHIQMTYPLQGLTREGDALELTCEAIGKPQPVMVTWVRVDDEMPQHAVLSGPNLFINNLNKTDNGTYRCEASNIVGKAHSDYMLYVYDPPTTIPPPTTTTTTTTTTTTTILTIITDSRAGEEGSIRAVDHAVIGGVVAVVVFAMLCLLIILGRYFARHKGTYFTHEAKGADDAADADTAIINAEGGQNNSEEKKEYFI


Assays:
[1] = target: T1, BSA-conjugated mouse CADM1 peptide; assay: ELISA, scFv titrated on coated BSA-conjugated mouse CADM1 peptide, anti-HA-HRP, OD450
[2] = target: T2, BSA-conjugated human CADM1 peptide; assay: ELISA, scFv titrated on coated BSA-conjugated human CADM1 peptide, anti-HA-HRP, OD450
[3] = target: T3, CADM1 peptide expressed on SBC-5 small …; assay: flow cytometry, 1 ug scFv on 5x10^5 SBC-5 cells expressing the CADM1 peptide, PE anti-HA
[4] = target: T2, BSA-conjugated human CADM1 peptide; assay: ELISA, scFv titrated on coated BSA-conjugated human CADM1 peptide, anti-HA-HRP, OD450
[5] = target: T1, BSA-conjugated mouse CADM1 peptide; assay: ELISA, scFv titrated on coated BSA-conjugated mouse CADM1 peptide, anti-HA-HRP, OD450
[6] = target: T4, comparison structure: the same structure without the CADM1 peptide (Myc tag, hinge, transmembrane domain, …); assay: flow cytometry, 1 ug scFv on 5x10^5 cells with the structure without the CADM1 peptide, PE anti-HA
T4 construct: also called 비교군 구조; CADM1 펩타이드를 포함하지 않는 세포

Binder	Bmax [1]	Kd [1] [nM]	Bmax [2]	Kd [2] [nM]	결합력 (%) [3] [%]	Bmax [4]	Kd [4] [nM]	Bmax [5]	Kd [5] [nM]	결합력 (%) [6] [%]
4H7 (scFv, V domains shown, Tested as purified scFv with His tag and HA tag; chicken immune library) VH: AVTLDESGGGLQTPGGTLSLVCKASGFDFSSYEMAWVRQAPGKGLEYVAGIDNTGSATNYGAAVKGRATISRDNGQSTVRLQLNNLRAEDTATYFCAKDAYGYSGSDSWYAANPAYIDAWGHGTEVIVSS VL: LTQPSSVSANPGETVKITCSGSSGSYGWYQQKSPGSAPVTVIYDNTNRPSDIPSRFSGSKSGSTGTLTITGVQAEDEAVYFCGSRDSSYVGIFGAGTTLTVL	5.57	394	4.48	52.7	3.3	–	–	–	–	–
5A2 (scFv, V domains shown, Tested as purified scFv with His tag and HA tag; chicken immune library) VH: AVTLDESGGGLQTPGGTLSLVCKGSGFDFSSVNMFWVRQAPGKGLEYVAGIRKDGGGPLYGAAVKGRATISRDNGQSTVRLQLNNLRAEDTGTYFCAKAAGSCWAGCTGFIDAWGHGTEVIVSS VL: LTQPSSVSANPGETVKITCSGGSSYYGWYQQKSPGSAPVTVIYYNDKRPSDIPSRFSGSKSGSTATLTITGVQAEDEAVYYCGSADSSYVGIFGAGTTLTVL	4.32	59.2	4.38	47.9	1.2	–	–	–	–	–
5RA8 (scFv, V domains shown, Tested as purified scFv with His tag and HA tag; human synthetic library) VH: EVQLLESGGGLVQPGGSLRLSCAASGFTFSSYGMSWVRQAPGKGLEWVSGISYSGGSTYYADSVKGRFTISRDNSKNTLYLQMNSLRAEDTAVYYCARPISRLGAYMWSSSYAMDVWGQGTLVTVSS VL: QSVLTQPPSASGTPGQRVTISCSGSSSNIGSNYVTWYQQLPGTAPKLLIYANSNRPSGVPDRFSGSKSGTSASLAISGLRSEDEADYYCGSWDASLNGYVFGGGTKLTVL	–	–	–	–	–	4.12	1.9	4.11	2	–
3C5 (scFv, V domains shown, Tested as purified scFv with His tag and HA tag; chicken immune library) VH: AVTLDESGGGLQTPGRALSLVCKGSGFTFSSVNMFWVRQAPGKGLEYVAGIRKDGGGPLYGAAVKGRATISRDNGQSTVRLQLNNLRAEDTGTYYCAKAAGSCWAGCTGFIDAWGHGTEVIVSS VL: LTQPSSVSANPGETVKITCSGGYNYYGWYQQKAPGSAPVTLIYANTDRPSDIPSRFSGSKFGSTATLTITGVQAEDEAVYFCGSRDSSYVGVFGAGTTLTVL	4.05	41.7	4.41	49.7	1.1	–	–	–	–	–
3G10 (scFv, V domains shown, Tested as purified scFv with His tag and HA tag; chicken immune library) VH: AVTLDESGGGLQTPGGGLSLVCKGSGFTFSSVNMFWVRQAPGKGLEYVAGIRKDGGGPLYGAAVKGRATISRDNGQSTVRLQLNNLRAEDTGTYYCAKAAGSCWAGCTGFIDAWGHGTEVIVSS VL: LTQPSSVSANPGETVKITCSGSTGSYGWFQQKSPGSALVTLIYNGNNRPSDIPSRFSGSKSGSTGTLTITGVQADDEAVYFCGGRESRSNPGIFGAGTTLTVL	1.62	0.926	1.91	2.77	–	–	–	–	–	–
4A2 (scFv, V domains shown, Tested as purified scFv with His tag and HA tag; chicken immune library) VH: AVTLDESGGGLQTPGRALSLACKGSGFTFSSYAMNWVRQAPGKGLEFVAQITSSGRYTYYGTAVKGRATISRDNGQSTVRLQLNNLRAEDSGTYYCAKDAAAGYYDGATAGDIDAWGHGTEVIVSS VL: LTQPSSVSANPGETVKITCSGGYNRYGWYQQKSPGSAPVTVIYSNNQRPSNIPSRFSGSKSGSTATLTITGVQAEDEAVYYCGSYDSSDGYAGIFGAGTTLTVL	4.49	79.2	4.14	4.19	18.5	–	–	–	–	0.7
4A8 (scFv, V domains shown, Tested as purified scFv with His tag and HA tag; chicken immune library) VH: AVTLDESGGGLQTPGGGLSLVCKASGFTFSSYAMNWVRQAPGKGLEFVAQITSSGRYTYYGTAVKGRATISRDNGQSTVRLQLNNLRAEDSGTYYCAKDAAAGYYDGATAGDIDAWGHGTEVIVSS VL: LTQPSSVSANLGGTVKITCSGGSGSNHYGWYQQKSPGSAPVTVIYSNNKRPSNIPSRFSGSKFGSTATLTITGVQADDEAVYYCGGYDSSAGYIGPFGAGTTLTVL	4.43	70.2	4.22	16.4	10.1	–	–	–	–	0.9
4C8 (scFv, V domains shown, Tested as purified scFv with His tag and HA tag; chicken immune library) VH: AVTLDESGGGLQTPGRALSLVCKASGFSFSSYSMYWVRQAPGKGLEYVAEITSSGRYTYYGSAVKGRATISRDNGQSTVRLQLNNFRAEDTATYFCAKGSGTGYSDSGAGGEIDAWGHGTEVIVSS VL: LTQPSSVSANPGETVKITCSGGSGSYYGWYQQKSPGSAPVTVIYQNKQRPSNIPSRFSGSKSGSTGTLTITGVQAEDEAVYFCGNYESSAGIFGAGTTLTVL	2.06	476	4.47	66.5	2.3	–	–	–	–	–

The remaining lines, values ahead:

Bmax [1]	Kd [1] [nM]	Bmax [2]	Kd [2] [nM]	결합력 (%) [3] [%]	Bmax [4]	Kd [4] [nM]	Bmax [5]	Kd [5] [nM]	결합력 (%) [6] [%]	Binder
–	–	–	–	–	4.29	10.4	4.39	39.5	–	5RA5 (scFv, V domains shown, Tested as purified scFv (one chain) with His tag and HA tag, from pComb3X in E. coli; human synthetic library) VH: EVQLLESGGGLVQPGGSLRLSCAASGFTFSNYAMSWVRQAPGKGLEWVSWIYHGGGDTYYADSVKGRFTISRDNSKNTLYLQMNSLRAEDTAVYYCARAAVYCKRTNCYSYDAMDVWGQGTLVTVSS VL: QSVLTQPPSASGTPGQRVTISCSGSSSNIGNNSVTWYQQLPGTAPKLLIYSNNNRPSGVPDRFSGSKSGTSASLAISGLRSEDEADYYCGAWDDSLNAYVFGGGTKLTAL
–	–	–	–	–	5.07	271	6.13	666	–	5RH12 (scFv, V domains shown, Tested as purified scFv with His tag and HA tag; human synthetic library) VH: EVQLLESGGGLVQPGGSLRLSCAASGFTFSNYAMSWVRQAPGKGLEWVSWIYHGGGDTYYADSVKGRFTISRDNSKNTLYLQMSSLRAEDTAVYYCARARVHCQQRRCSSYDAMDVWGQGTLVTVSS VL: QSVLTQPPSASGTPGQRVTISCSGSSSNIGSNSVSWYQQLPGTAPKLLIYADSHRPSGVPDRFSGSKSGTSASLAISGLRSEDEADYYCGAWDDSLSAYVFGGGTKLTVL
–	–	–	–	–	4.25	11.9	–	–	–	5RB6 (scFv, V domains shown, Tested as purified scFv with His tag and HA tag; human synthetic library; also called 5RB6(H); 5RB6 # Human specific) VH: EVQLLESGGGLVQPGGSLRLSCAASGFTFSDYAMSWVRQAPGKGLEWVSWIYYDSGSKYYADSVKGRFTISRDNSKNTLYLQMDSLRAEDTAVYYCAKHGRNTKNWPWYSANGMDVWGQGTLVTVSS VL: QSVLTQPPSASGTPGQRVTISCTGSSSNIGSNSVSWYQQLPGTAPKLLIYSDSKRPSGVPDRFSGSKSGTSASLAISGLRSEDEADYYCGAWDSSLSAYVFGGGTKLTVL
–	–	–	–	–	4.42	43.7	4.54	114	–	5RA7 (scFv, V domains shown, Tested as purified scFv with His tag and HA tag; human synthetic library) VH: EVQLLESGGGLVQTGGSLRLSCAASGFTFSDYAMSWVRQAPGRGLEWVSAIYPGNSSIYYADSVKGRFTISRDNSKNTLYLQMNSLRAEDTAVYYCARVPVQCMLTRCYSYDAMDVWGQGTLVTVSS VL: QSVLTQPPSASGTPGQRVTISCTGSSSNIGNNSVTWYQQLPGTAPKLLIYADSHRPSGVPDRFSGSKSGTSASLAISGLRSEDEADYYCGAWDSSLNAYVFGGGTKLTVL
–	–	–	–	–	3.52	8.05	3.64	6.97	–	5RG9 (scFv, V domains shown, Tested as purified scFv with His tag and HA tag; human synthetic library) VH: EVQLLESGGGLVQPGGSLRLSCAASGFTFSSYGMSWVRQAPGKGLEWVSWISYSGGNTYYADSVKGRFTISRDNSKNTLYLQMNSLRAEDTAVYYCARPISHFGAYMWSSSYAMDVWGQGTLVTVSS VL: QSVLTQPPSASGTPGQRVTISCSGSSSNIGSNYVTWYQQLPGTAPKLLIYANSNRPSGVPDRFSGSKSGTSASLAISGLRSEDGADYYCGAWDASLNGYVFGGGTKLTVL
–	–	–	–	–	4.19	4.23	4.19	4.8	–	6RC7 (scFv, V domains shown, Tested as purified scFv with His tag and HA tag; human synthetic library) VH: EVQLLESGGGLVQPGGSLRLSCAASGFTFSNYAMSWVRQAPGKGLEWVSGIYPNSGSNTYYADSVKGRFTISRDNSKNTLYLQMNSLRAEDTAVYYCARAIGPCLRYPCYSADAMDVWGQGTLVTVSS VL: QSVLTQPPSASGTPGQRVTISCTGSSSNIGSNYVNWYQQLPGTAPKLLIYANSNPPSGVPDRFSGSKSGTSASLGISGLRSEDEADYYCGAWDDNLNAYVFVGGTKLTVL
4.54	136	4.52	123	–	–	–	–	–	–	5A5 (scFv, V domains shown, Tested as purified scFv with His tag and HA tag; chicken immune library) VH: AVTLDESGGGLQTPGGGLSLVCKGSGFTFSSVNMFWVRQAPGKGLEYVAGIRKDGGGPLYGAAVKGRATISRDNGQSTVRLQLNNLRAEDTGTYYCAKAAGSCWAGCTGFIDAWGHGTEVIVSS VL: LTQPSSVSANLGGTVKITCSGSSGYGYGWYQQKSPGSAPVTVIYYNNKRPSDIPSRFSGSKSGSTATLTITGVQVEDEAVYYCGSADSSAGYVGIFGAGTTLTVL
